What was measured:
[1] = biological target: T1, human CD3 on cells (Jurkat cells, human T cells) (human, UniProt P07766 23-207); experiment: cell-based or functional assay
[2] = biological target: T1, human CD3 on cells (Jurkat cells, human …); experiment: flow cytometry, human CD3+ T cells
Excerpt: (§1) Human PBMCs were freshly isolated from the blood of healthy donors by density gradient centrifugation using Histopaque-1077 (Sigma). Human CD3+ T cells were further isolated from PBMCs using the Human T Cell Enrichment Kit (Stem Cell Technologies). Monkey PBMCs were isolated from a naïve cynomolgus monkey by density gradient centrifugation using Histopaque-1077 (Sigma). Monkey CD3+ T cells were isolated from PBMCs using the Pan T Cell Isolation Kit Non-Human Primate (Miltenyi Biotec). Purified human or monkey CD3+ T cells were stained with the testing antibodies as the primary antibody and the APC-labelled anti-human-Fc antibody (BioLegend) as the secondary antibody. After washing, the cells were analyzed on the CytoFLEX flow cytometer (Beckman Coulter) and the data was analyzed by FlowJo software.

[3] = biological target: T2, cynomolgus monkey CD3 on T cells (cynomolgus monkey, UniProt Q95LI5 22-198); experiment: flow cytometry, monkey CD3+ T cells
T2 construct: whole, on cells
Excerpt: as §1

T1 sequence (P07766 23-207): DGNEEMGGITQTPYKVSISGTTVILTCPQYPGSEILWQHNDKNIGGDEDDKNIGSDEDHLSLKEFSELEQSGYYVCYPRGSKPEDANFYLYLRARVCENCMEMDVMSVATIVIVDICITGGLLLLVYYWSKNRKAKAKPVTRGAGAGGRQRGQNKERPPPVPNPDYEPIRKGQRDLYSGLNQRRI
T2 sequence (Q95LI5 22-198): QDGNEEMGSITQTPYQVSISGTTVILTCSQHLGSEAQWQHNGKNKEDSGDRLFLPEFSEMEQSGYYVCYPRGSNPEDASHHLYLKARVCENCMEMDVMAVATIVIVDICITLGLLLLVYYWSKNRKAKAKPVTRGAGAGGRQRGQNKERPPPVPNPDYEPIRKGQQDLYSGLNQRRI

Binder | Jurkat NFAT reporter assay EC50 [1] [nM] | Masking efficiency (Jurkat NFAT reporter assay) [1] [fold] | EC50 [2] [nM] | max MFI [2] [MFI] | EC50 [3] [nM] | max MFI [3] [MFI]
TY23118 (antibody) light: EVGSYDADDPDCPADNNHCHYSGRSAGGGGTPLGLAGSGGSQAVVTQEPSLTVSPGGTVTLTCGSSTGAVTTSNYANWVQQKPGQAPRGLIGGTNKRAPGVPARFSGSLLGGKAALTLSGAQPEDEAEYYCALWYSNLWVFGGGTKLTVLRTVAAPSVFIFPPSDEQLKSGTASVVCLLNNFYPREAKVQWKVDNALQSGNSQESVTEQDSKDSTYSLSSTLTLSKADYEKHKVYACEVTHQGLSSPVTKSFNRGEC heavy: not shown | 7.9 | 419 |  |  |  | 
TY23115 (antibody) light: EVGSYPYDDPDCPSHDSDCDNSGRSAGGGGTPLGLAGSGGSQAVVTQEPSLTVSPGGTVTLTCGSSTGAVTTSNYANWVQQKPGQAPRGLIGGTNKRAPGVPARFSGSLLGGKAALTLSGAQPEDEAEYYCALWYSNLWVFGGGTKLTVLRTVAAPSVFIFPPSDEQLKSGTASVVCLLNNFYPREAKVQWKVDNALQSGNSQESVTEQDSKDSTYSLSSTLTLSKADYEKHKVYACEVTHQGLSSPVTKSFNRGEC heavy: not shown | 7.7 | 409 |  |  |  | 
TY23110 (antibody) light: EVGSYAPHDPDCPADPPSCYPSGRSAGGGGTPLGLAGSGGSQAVVTQEPSLTVSPGGTVTLTCGSSTGAVTTSNYANWVQQKPGQAPRGLIGGTNKRAPGVPARFSGSLLGGKAALTLSGAQPEDEAEYYCALWYSNLWVFGGGTKLTVLRTVAAPSVFIFPPSDEQLKSGTASVVCLLNNFYPREAKVQWKVDNALQSGNSQESVTEQDSKDSTYSLSSTLTLSKADYEKHKVYACEVTHQGLSSPVTKSFNRGEC heavy: not shown | 3.6 | 191 |  |  |  | 
TY25715 (bispecific antibody, human IgG1, kappa, N297A, also called parental CD20xCD3 bispecific antibody of TY25716) light: QIVLSQSPAILSASPGEKVTMTCRASSSVSYIHWFQQKPGKSPKPWIYATSNLASGVPVRFSGSGSGTSYSLTISRVEAEDAATYYCQQWTSNPPTFGGGTKVEIKRTVAAPSVFIFPPSDEQLKSGTASVVCLLNNFYPREAKVQWKVDNALQSGNSQESVTEQDSKDSTYSLSSTLTLSKADYEKHKVYACEVTHQGLSSPVTKSFNRGEC heavy: EVQLVQSGAEVKKPGSSVKVSCKASGYTFTSYNMHWVRQAPGKGLEWIGAIYPGSGDTSYNQKFKGRVTITADKSTSTAYMELSSLRSEDTAVYYCARSTYYGGDWYFNVWGQGTLVTVSSASTKGPSVFPLAPSSKSTSGGTAALGCLVKDYFPEPVTVSWNSGALTSGVHTFPAVLQSSGLYSLSSVVTVPSSSLGTQTYICNVNHKPSNTKVDKKVEPKSCDKTHTCPPCPAPELLGGPSVFLFPPKPKDTLMISRTPEVTCVVVDVSHEDPEVKFNWYVDGVEVHNAKTKPREEQYASTYRVVSVLTVLHQDWLNGKEYKCKVSNKALPAPIEKTISKAKGQPREPQVYTLPPSRKKLTKNQVKLTCLVKGFYPSDIAVEWESNGQPENNYKTTPPVLDCDGSFFLYSKLTVDKSRWQQGNVFSCSVMHEALHNHYTQKSLSLSPGK EAVVTQEPSLTVSPGGTVTLTCGSSTGAVTTSNYPNWVQQKPGQAPRGLIGGTNKRAPGTPARFSGSLLGGKAALTLSGAQPEDEAEYYCALWYSDLWVFGGGTKLTVLGGGGSGGGGSGGGGSGGGGSEVQLVESGGGLVQPGGSLRLSCAASGFTFSTYAINWVRQAPGKGLEWVSRIRSKYNNYATYYAESVKDRFTISRDDSKNTLYLQINSLRAEDTAVYYCVRHGNFGTSYVSWFAYWGQGTLVTVSSEPKSSDKTHTCPPCPAPELLGGPSVFLFPPKPKDTLMISRTPEVTCVVVDVSHEDPEVKFNWYVDGVEVHNAKTKPREEQYASTYRVVSVLTVLHQDWLNGKEYKCKVSNKALPAPIEKTISKAKGQPREPQVYTDPPSRDELTKNQVSLTCLVDGFYPSDIAVEWESNGQPENCYKTTPPVLDSDGSFFLYSKLTVDKSRWQQGNVFSCSVMHEALHNHYTQDSLSLSPGK |  |  | 28.8 | 2260 | 20.7 | 1120

— US20250326860A1 (ADAGENE PTE, published 2025)
